Laboratory results from patent publication US20160200782A1 (MOERAE MATRIX, published 2016).

B1: MMI-0300 (peptide)
peptide: FAKLAARLYRKALARQLGVAA
B2: MMI-0400 (peptide)
peptide: KAFAKLAARLYRKALARQLGVAA

What was measured:
Test in all cases: cell-based or functional assay
TSSK2(h) = target: T1, TSSK2(h) (human, UniProt Q96PF2 1-358)
T1 sequence (looked up): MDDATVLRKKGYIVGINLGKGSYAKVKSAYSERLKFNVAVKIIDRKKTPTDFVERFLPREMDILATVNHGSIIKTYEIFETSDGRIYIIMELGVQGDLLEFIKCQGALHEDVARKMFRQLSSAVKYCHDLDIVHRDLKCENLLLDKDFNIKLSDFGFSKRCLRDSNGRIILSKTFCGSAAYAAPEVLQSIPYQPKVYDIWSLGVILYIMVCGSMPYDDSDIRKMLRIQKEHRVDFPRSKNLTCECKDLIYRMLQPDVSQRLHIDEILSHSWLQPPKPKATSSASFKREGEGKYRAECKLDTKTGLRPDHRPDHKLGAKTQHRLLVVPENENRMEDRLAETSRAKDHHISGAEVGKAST

Ret(V804L)(h) = target: T2, Ret(V804L)(h) (human, UniProt P07949 658-1114, limits assumed)
T2 sequence (looked up): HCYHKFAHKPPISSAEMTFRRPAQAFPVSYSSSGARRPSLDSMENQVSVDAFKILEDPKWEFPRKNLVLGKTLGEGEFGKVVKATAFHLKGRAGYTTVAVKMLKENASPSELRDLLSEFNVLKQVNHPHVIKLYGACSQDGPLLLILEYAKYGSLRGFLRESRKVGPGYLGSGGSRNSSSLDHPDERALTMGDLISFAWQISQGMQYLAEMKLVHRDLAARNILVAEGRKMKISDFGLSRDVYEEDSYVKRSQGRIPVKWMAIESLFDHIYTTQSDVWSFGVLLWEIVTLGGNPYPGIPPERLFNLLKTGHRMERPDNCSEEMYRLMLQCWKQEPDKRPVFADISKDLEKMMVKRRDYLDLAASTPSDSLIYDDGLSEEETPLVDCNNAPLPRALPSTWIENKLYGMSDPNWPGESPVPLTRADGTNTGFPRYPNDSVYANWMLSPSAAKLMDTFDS

Flt3(D835Y)(h) = target: T3, Flt3(D835Y)(h) (human, UniProt P36888 564-993, limits assumed)
T3 sequence (looked up): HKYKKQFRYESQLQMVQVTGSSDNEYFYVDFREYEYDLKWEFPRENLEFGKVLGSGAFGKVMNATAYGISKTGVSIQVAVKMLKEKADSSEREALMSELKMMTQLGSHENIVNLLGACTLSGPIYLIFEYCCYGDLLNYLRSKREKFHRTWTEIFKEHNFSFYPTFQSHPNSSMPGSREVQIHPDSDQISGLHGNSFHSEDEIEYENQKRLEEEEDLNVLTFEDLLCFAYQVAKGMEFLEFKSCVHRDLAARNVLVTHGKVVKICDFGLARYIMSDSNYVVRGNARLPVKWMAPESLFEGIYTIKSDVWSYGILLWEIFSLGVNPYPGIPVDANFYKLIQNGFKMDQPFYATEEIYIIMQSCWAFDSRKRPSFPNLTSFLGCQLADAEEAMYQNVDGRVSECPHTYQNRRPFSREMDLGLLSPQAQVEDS

p70S6K(h) = p70S6K(h) (human, UniProt P23443 1-421, limits assumed)
p70S6K(h), sequence (P23443 1-421 limits assumed): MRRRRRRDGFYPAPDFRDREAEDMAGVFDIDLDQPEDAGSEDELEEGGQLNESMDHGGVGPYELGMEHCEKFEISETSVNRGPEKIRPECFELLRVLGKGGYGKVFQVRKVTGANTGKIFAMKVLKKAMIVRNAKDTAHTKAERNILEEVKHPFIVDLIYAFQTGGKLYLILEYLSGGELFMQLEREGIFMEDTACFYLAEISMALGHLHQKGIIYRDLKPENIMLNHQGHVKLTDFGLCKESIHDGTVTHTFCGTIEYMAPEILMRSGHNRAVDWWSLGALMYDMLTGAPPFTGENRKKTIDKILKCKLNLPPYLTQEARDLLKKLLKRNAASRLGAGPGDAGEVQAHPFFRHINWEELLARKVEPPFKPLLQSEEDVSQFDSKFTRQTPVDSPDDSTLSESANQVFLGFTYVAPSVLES

CaMKIIγ(h) = CaMKIIγ(h) (human, UniProt Q13555 1-558, limits assumed)
CaMKIIγ(h), sequence (Q13555 whole entry): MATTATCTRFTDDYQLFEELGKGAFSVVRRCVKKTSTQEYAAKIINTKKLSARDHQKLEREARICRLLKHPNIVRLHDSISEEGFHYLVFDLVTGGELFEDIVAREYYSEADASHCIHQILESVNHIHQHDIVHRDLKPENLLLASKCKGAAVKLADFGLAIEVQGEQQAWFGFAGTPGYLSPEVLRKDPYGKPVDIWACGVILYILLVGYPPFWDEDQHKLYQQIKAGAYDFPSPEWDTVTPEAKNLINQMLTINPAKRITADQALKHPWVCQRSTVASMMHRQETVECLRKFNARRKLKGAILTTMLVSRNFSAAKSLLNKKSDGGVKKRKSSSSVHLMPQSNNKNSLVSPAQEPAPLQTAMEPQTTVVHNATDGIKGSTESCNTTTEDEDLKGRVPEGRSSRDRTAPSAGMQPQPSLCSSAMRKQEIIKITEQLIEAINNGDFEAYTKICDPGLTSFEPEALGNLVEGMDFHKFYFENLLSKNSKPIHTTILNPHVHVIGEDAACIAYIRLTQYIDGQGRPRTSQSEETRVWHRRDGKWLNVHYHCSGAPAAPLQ

EphB4(h) = target: T4, EphB4(h) (human, UniProt P54760 561-987, limits assumed)
T4 sequence (looked up): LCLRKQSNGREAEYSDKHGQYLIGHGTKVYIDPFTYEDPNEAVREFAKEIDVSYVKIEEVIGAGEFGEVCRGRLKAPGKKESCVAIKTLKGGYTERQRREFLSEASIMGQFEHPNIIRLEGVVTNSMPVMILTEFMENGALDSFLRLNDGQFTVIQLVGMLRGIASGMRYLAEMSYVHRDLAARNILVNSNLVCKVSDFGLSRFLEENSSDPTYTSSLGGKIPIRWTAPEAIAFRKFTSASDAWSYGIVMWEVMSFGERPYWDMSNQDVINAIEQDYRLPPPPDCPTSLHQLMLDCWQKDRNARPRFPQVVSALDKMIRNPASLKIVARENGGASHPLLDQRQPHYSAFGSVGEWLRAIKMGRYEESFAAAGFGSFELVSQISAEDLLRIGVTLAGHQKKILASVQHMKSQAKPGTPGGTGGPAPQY

MARK1(h) = MARK1(h) (human, UniProt Q9P0L2 1-795, limits assumed)
MARK1(h), sequence (Q9P0L2 whole entry): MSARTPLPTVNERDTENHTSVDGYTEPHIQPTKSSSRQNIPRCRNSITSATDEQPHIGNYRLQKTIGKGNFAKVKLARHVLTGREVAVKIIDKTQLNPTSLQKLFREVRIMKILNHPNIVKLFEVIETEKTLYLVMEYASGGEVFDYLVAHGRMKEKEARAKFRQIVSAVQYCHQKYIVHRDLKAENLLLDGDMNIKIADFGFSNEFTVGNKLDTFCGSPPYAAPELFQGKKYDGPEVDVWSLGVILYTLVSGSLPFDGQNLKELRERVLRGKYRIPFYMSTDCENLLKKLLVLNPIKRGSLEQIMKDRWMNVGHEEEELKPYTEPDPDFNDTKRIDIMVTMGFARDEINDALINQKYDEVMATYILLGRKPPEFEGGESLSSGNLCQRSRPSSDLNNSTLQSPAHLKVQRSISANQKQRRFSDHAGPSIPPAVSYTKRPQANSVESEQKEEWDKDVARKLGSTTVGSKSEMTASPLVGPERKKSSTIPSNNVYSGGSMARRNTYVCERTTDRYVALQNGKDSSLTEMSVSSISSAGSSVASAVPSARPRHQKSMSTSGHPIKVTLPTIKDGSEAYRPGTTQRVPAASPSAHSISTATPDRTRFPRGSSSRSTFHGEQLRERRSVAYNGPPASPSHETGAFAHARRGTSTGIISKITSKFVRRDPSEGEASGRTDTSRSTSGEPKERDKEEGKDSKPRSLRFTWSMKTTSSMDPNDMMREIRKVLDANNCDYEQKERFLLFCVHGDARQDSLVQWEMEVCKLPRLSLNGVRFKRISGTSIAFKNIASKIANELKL

ULK2(h) = target: T5, ULK2(h) (human, UniProt Q8IYT8 1-478, limits assumed)
T5 sequence (looked up): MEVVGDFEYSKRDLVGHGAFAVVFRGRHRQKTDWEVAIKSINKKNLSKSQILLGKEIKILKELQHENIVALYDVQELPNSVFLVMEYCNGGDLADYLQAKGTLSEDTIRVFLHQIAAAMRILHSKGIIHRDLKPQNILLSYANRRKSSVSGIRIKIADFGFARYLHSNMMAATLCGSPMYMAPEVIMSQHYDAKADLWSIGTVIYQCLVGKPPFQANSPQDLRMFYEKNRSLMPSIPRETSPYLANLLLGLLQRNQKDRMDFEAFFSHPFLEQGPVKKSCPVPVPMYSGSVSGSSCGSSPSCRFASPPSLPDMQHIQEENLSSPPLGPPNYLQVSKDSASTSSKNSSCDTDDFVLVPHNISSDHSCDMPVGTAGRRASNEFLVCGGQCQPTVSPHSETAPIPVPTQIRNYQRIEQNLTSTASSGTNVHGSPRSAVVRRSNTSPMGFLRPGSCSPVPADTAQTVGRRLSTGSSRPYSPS

DCAMKL2(h) = target: T6, DCAMKL2(h) (human, UniProt Q8N568 372-766, limits assumed)
T6 sequence (looked up): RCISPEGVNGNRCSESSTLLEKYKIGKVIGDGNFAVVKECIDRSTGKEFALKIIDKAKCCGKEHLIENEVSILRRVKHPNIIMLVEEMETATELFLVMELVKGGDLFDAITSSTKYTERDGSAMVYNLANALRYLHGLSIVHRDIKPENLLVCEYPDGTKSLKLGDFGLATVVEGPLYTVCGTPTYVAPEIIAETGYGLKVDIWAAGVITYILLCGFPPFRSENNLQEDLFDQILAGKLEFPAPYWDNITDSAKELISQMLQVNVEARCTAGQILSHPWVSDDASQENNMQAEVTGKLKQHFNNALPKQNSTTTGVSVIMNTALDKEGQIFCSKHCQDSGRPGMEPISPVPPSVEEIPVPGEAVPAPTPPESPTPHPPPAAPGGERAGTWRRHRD

Fyn(h) = Fyn(h) (human, UniProt P06241 1-537, limits assumed)
Fyn(h), sequence (P06241 whole entry): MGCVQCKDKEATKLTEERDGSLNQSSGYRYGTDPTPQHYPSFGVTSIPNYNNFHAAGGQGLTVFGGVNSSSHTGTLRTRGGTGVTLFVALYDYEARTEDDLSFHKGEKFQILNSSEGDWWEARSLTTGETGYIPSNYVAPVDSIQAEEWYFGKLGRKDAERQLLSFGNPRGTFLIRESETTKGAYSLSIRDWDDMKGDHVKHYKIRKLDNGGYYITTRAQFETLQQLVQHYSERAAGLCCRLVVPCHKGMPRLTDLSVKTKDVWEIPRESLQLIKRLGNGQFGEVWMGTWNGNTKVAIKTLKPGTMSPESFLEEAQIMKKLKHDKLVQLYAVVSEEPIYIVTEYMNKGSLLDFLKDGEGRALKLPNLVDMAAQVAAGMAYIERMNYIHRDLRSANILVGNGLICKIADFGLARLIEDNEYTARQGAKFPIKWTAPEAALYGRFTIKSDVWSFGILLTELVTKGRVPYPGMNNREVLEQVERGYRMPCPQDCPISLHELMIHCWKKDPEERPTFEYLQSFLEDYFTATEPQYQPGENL
Further: test concentration or dose not given here.

Binder | % activity (TSSK2(h)) [%] | % activity (Ret(V804L)(h)) [%] | % activity (Flt3(D835Y)(h)) [%] | % activity (p70S6K(h)) [%] | % activity (CaMKIIγ(h)) [%] | % activity (EphB4(h)) [%] | % activity (MARK1(h)) [%] | % activity (ULK2(h)) [%] | % activity (DCAMKL2(h)) [%] | % activity (Fyn(h)) [%]
B1 | 98 | 79 | 80 | 35 | 5 | 44 | 132 | 122 | 81 | 74
B2 | 94 | 73 | 71 | 33 | 3 | 28 | 120 | 131 | 70 | 54
